Reference: patent publication US20030082187A1

Key:
[1] = biological target: murine VCAM-1 (vascular endothelial adhesion molecule-1) (murine) (UniProt P29533); assay: cell-based or functional assay
[2] = biological target: murine VCAM-1 (vascular endothelial adhesion molecule-1) (murine) (UniProt P29533); assay: bEnd.3 cells, unstimulated against IL-1α-stimulated

Chain of UniProt P29533 (P29533 25-739): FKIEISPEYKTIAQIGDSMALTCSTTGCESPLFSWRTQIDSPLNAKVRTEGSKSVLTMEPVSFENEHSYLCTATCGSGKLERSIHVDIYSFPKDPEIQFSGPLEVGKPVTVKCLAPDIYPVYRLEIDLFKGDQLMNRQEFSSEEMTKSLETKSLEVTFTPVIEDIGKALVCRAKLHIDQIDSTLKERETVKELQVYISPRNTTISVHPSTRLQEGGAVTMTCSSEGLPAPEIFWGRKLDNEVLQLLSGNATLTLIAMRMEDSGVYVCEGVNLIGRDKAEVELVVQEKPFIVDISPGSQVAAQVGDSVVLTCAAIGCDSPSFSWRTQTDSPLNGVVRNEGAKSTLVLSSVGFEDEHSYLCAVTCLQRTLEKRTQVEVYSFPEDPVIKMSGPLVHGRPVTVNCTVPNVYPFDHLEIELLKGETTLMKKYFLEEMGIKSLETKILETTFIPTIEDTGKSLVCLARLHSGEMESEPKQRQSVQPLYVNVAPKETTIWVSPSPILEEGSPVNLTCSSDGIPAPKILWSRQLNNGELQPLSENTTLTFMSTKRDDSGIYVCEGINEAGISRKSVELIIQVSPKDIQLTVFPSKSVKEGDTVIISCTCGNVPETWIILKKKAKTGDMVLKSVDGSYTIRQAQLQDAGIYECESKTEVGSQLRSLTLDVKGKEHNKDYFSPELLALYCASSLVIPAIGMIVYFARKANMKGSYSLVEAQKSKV

| Generation of Factor Xa (intact cells, control/unstimulated) (ng per 10^4 cells per 60 min) [1] | Generation of Factor Xa (permeabilized cells, control/unstimulated) (ng per 10^4 cells per 60 min) [1] | percent lower amount bound to unstimulated versus stimulated cells [2] | Generation of Factor Xa (intact cells, IL-1α) (ng per 10^4 cells per 60 min) [1] | Generation of Factor Xa (permeabilized cells, IL-1α) (ng per 10^4 cells per 60 min) [1] | Substance |
| --- | --- | --- | --- | --- | --- |
| 0.26 | 0.39 | – | – | – | truncated tissue factor (tTF), unconjugated (from UniProt P13726 33-251) |
| 1.64 | 49.2 | 50% | 3.17 | 98.8 | anti-VCAM-1·tTF coaguligand (MK2.7 anti-VCAM-1 IgG covalently linked to truncated tissue factor) (from UniProt P13726 33-251) |
| 0.26 | 0.41 | – | – | – | control IgG·tTF (R187) coaguligand (from UniProt P13726 33-251) |
